In a protein production outcome set (Wang et al. 2014):

Assay: label from the status in PepcDB records

Sequence	protein production
MNGIHDVGGMDGFGKVMYVKEEEDIYFTHDWERLALGLVAGCMAQGLGMKAFDEFRIGIELMRPVDYLTSSYYGHWIATVAYNLVDTGVLDEKELDERTEVFSKKPDTKIPRREDPALVKLVEKALNDGLSPLREISASPRFKVGERIKTKNIHPTGHTRFPRYARDKYGVIDEVYGAHVFPDDAAHRKGENPQYLYRVRFEAEELWGYKQKDSVYIDLWESYMEPVSH	not failed
MNGVLEQHWTGEGRRLRAAPAVLCLLLGTALAGCGDMNRFQTAAAPPTVAMPKPKPAVAQTPATEKEHERILASYGGTYDDPRLESLVTKTVDRLVAASDRPDQGYRITILNSGAVNAFALPNGQLYVTRGLLALASDTSELSSVLSHEMAHVLSKHAAMREDQARQAAIVTRVVTDMSNDPDLTALALAKTKLTMASFSRNQEFEADGIGVGISARAHFDPYGAARFLSAMERNAELKAGKTSLDPRAQDFTSSHPATPERVQNAQTIARQYVAPEGGERDRESYLAAIDNLVYGEDPERGFCPRPAFPASEARLHLPGAGQFHARQHRAGGDRRARRRLAGDALRRGAGAGRAVARRLPQFGLDGRRREGVHGRHHHQRLPGRVRHRQGRPVAVQGLCAAFRQRRLPLHLRGTAEVDRERAQCARDRQLVPSPDPRRDPGRPPAAHQGDHRAARRHRGIALPPHGRRRSPRRALPRAQRPRSQRAGEGEGSREGRGGLTLREARVIPGRLARTRDLEPRRHCRRVGKA	failed
MNHKQYLALAVPLIISTITTPLLGAVDTAVAGQLSSPAYIGGVAVGTMIFNTMYWLLGFLRVSTSGFAAQSLGSQNRSESVLALARPVFIALFAGLMFIILQKPLEYAALTLIQPDRHTAEFASQYFSLRIWGAPFALISYCILGWLMGMSLIKVTLLLQISMNVLNIVLDIVFVYVFHMEVYGIALATLISDVTGCLIGCWLVKTNAAMPFKLPSVKLLFDPKPFKKMMVVNRDLLIRTLCLLTVFNLFTAKGAGFGAEILAANAILIQIHYLMAYVFDGFANASSIFAGKAVGRMDRDLYSRTLSLSIQWSLISAALLSVGYFLLRNAILPLFTPLESVLEAAKTYDVWIALFPLAASFGLVFYGIFTGATEIGPVRNSMFLAVLVFLAAFFTAVPAFGNHGLWLAFLLFSLGRSVFLCMAVPGLTTRLFGERSAAREAGQRPKSLKHPG	failed
MNHLKKLVSILICTLLIVSLLPFSVWADSQERDGTDVEEITTKEKVTQETTSNETTSEPLKGTTVNKAINAKSFPTGNYSGDFSINSQKDVIESGQTVNYNIYLKITGPNTRYQNAKLVINLPKNGEFNQSLNELKIAGATPSYNKTTRQLVYTYQTLNSGVVDKVILKMTTKNGYTPNGTKLVVTGELSADNLSEKVTEQAETTVNATATTALSNDFTKVENSINNNPSQGDIGIWSFNLNIPKKSTGSLFMEEGKKIVIEYTLADKLDYLGVAGDTPEPTKVEGQKLTWEIAAPTYLEQEKANSLLNKTFQIRTFFQPTIPNFATVENKAVATTNFVTLTDSIVDTSKASVSVSASDPATIPPTIGSVYAPAHRGPVDANWGIATVTGNPDIKVYDTAKLGFSLMLNSAMNDSPWYDFLYYDAYYNIDDNLNLDYFRSGDFYFKPNVNYPGWAQLKKSPKYNLLVKYDGDTDWTTLKEDVELSKMYSRKDLGIPDDKHVSKVWLHFTYAPAGMYAADLSFFTTVKEGYVGEVRNSTQINMYGADSQDYIHYYDDTNPWPEAWKNYAGDRTAQIIPQPTGKNKFVQGSVVFDDTDGNLINIGDNSISVNLESNKASISRLKGPFEAMVLLPSGVKMKNTEQNGFKVTVLNENYQNAGRQLLKVKWDKKTLLPAEKLTAKINVSVAKDTPSNMTVEMFGFLQDTDFNVPEVSGTPTISDTKMEIDSNDINQNGNSEESRITSGNHYILNTSNHLKISKKAKGNRDKEYSGLANATTNSIVSYQLSLENDSDEKIANMVLMDVLPSENDLGITDNSERGSKFNLALTKAVEVPKEWKDKVEVTYSTAKNPKRAGILDKHTIYPIGTEPLVDNTEATQADWLTASEVKDWSNIYSFKIELKEGIEWIPGKSMKIQFDLKTPKKNQIDKTLLKQQTKKEDRAAWNSFAVAVNNSQVIEPAQVGVALDDSVAPVTVQYVDQNHKQIASPETLTGAYGEKFTAKQKKINNYSLVKIPANVSGTFNEKAQTITFIYQKVTAGRIIVNYVDKNGEKIADSIVLNGKLNSSYTTSSKKISGYKLYQTPKNATGKFLNTSQTVTYVYERTSNLSISSSNKGTENVKKLAKLPHTGDSTTTNLWVIIGLFMLSGAFVIMKKR	failed
MNHVAVIGGGIIGASWAVVFARRGLEVTIVERDAACLAGLPARLAGMIERSASLLGAGEQPGDVAARIGATDALAAAVGRADYVQEAVSENLALKRTLFAELDALAPAHALLASSTSTYGASQFTEALAGRARCLVAHPMTPPHLSPVVEMAASAWTDPQVLAGAEAFMRSLGQHPVRIRKEIPGFVLNRLQGALLMEMFRVIADDVISPADADALISQGLGLRWATLGPLEGVDLNAPGGIADYLQRYGHIFNDMAVGQGLPAPVDAELISALDGAMRAALPLERLEAKRGWRDRAIAGVRVALHDYTGEKPLEHHHHHH	failed
MNIEEAKELVDNSKFYGKTSSVIKAEVRDIIDQLNQPKPEVPQCVADWIEECKEEDLTLKGLFSNSDMPAKIFDWIFGSDENCRLMAEAWINGYTVEKEKLYTVDLPNGQPLVRGINTLYFSQNLATENVKLTESEIRKDFEWAWQFAEEVTE	failed
MNIEQMLAILDPDVVQRLKIAVEIGKWPNGVALTAEQRQICMQAVMIWEHKHLPEEERTGYIDRGTKEEGEECDSHEPEIKPIRFI	failed
MNIPNLLTLFRFFLIPCFIFAFFSRSNDSLINSAIIFFIAGFTDILDGYIARKFNEITKYGTVMDPLADKLMLLTVLCCLTIKGYIPLLILLIMLAKEFSMIIIGVFLYGKNIIIPANIWGKLSTLIFYVAILFFTFSKFLGTYLLYIAILGAVVAYINYFLIFLSKYRQNATK	failed
MNIQQLEYIAALDKFRHFAKAADYCNVSQPTLSTMILKLEEELGAKLFDRSRQPIEPTSIGALVVSQAKQILYDLNSITRIIEEEQ	failed
MNIQSELEFKFAHYLINNAVEASFCLGDNWQFLYVNDATCRMTEYSREQLLSMNLQDIDVDFALHDWEEIRQKNNYTFKTRYRSQSGRIFLVEMSLTFLEDQERRFSCVFVREKS	not failed
MNIRIAEELDVPALAELYQTTVLAVAPQHYSPEQTQMWASFASDTDNFQKFILNATTFIATDERGILGFAGITEDGHVTATYVRSDLIRQGIGSILMEKILEYAHLHKIRRLYAEASEFSLGLFQKFGFHIYDTEIVNRQGVLFRRYIVERS	failed
MNISLVFPPFHLQSLYNLPPLGLISLATVLGEAGHRAVIRDLVLALRQGSLGMGKELYGEAARMILRDDPDLVGFSAQCTTFPAVVRIARLLKEQKPDLRIVAGGHNVSFLDVPTLERFPWIDAVVRGEGEVTFRELAASFAVGNDPAEVAGVTWRRGTEIVRNPDRELIADLDTLPLPDYTLVPPLASYRDACGIPRSIAILEVGRGCPHRCVYCSESVMWRRRTRTFSIPRLIREMEELHGRFGAECLVLAYDQFTADRRFVEEFCNRVIDARLNRVPWYCISRLDSLDRPLLDLMREAGCESMCYGIDSGSRRTLAFIGKEIDEGILYQRVRETTEAGMVPTLSFVIGFPEEEREDIDQTLFLALKAGVQGNSAPLVQLPTVLAGTELHRRYTGRLVREVDTYFSLGLEFDHGRRLADDERLIDADPFLFSSFYNLPCAGVPLAELDRIARWFPLILNGYPKSFILLSLALGRPPSNLFREILSRLEEDGWREDDPTAETAFLERFPCHAEGLMAGSASWPHFAEILTYETLALRATHRGPPRADGAGPLKGDPAGECRPVLREEVTVSEFRRNLPAIIADLKSGIFRESYPPEPTLLIFYPSGERLEVMEINRFGKDFLLLCNGLATCEEIAATLYGEYGDAMDSGAFSEECKDALTVFTGMGLVRDGAAPAP	failed
MNIVYLLMLSLILFSIGLYGISTSNVGIKMLISLEIIINSAILAGVSISSFYFSTGVLIFVLFAIAIGVIESAVGIAILTMVYKKYGRITISLLKEIKW	failed
MNIYSLFVVAIALSLDAFGVALSIGLDSCVKRKNKLLFAISFGFFQFLCTFIGAYSGFLFNTYITYVPQIIGGMIIAFVGAFMIKEGFDNKEEKLLLNFKMYFVLGISVSIDAAVVGFTMFNKISSNYVILGDSVFIGIVTLILSIIAFIISRYLKRIQLVCKYADYIGGIILVIFGLKMMFF	failed
MNKAGARASDQETRRFGFVEWFRPGDYERAEVALPDILESGASYLRTHLSWAEYLAPGGQQWFDWLIPRIGGQIDLLPCIHYTPPSLSRTGRSSGPPVNLKSYADFVDHVLTRYGRYISHIELWNEPNNLLDWDWRHDSDFLLFCEMVGGAAYWAKQRGYKPVLGGPCPFDPYWLNLMGTRGVLGVVDAVGFHGFPGTWDSEEATWGGWDMHLGEMRGIIDRYNADAEIWITETGYSTWRNDEIEQARRFTKALKVPADRMYWYSWRDVPPDVPVQEGLWFDPRHYHLGAVSHDNKPKLLARLLTEGGVKRLEEVAALAAPNITSGAAPIIVTGGSGFVGCNLADRLLSDGEDVIILDNLARSGVDQNLSWLKERHGGRVHPVLADVRDLLGIEAAFRDAKAVFHYAAQTAVTTSLVDPLEDFETNARGTLNVLESIRRAGKRAPIIFASTNKVYGALDDLGMIELDDRYLPEDESIRTLGIGEDRPLDFCTPYGCSKGVADQYILDYAKSYGIPAAVLRMSCIYGPRQFGTEDQGWVAHFLIRALGGEPISIYGDGKQVRDILHVDDAVAAYRVLLSNIGQVSGKAFNLGGGPRNAVSVLAVLREIEELAGRPVETSFGPWRAGDQLYFVADTTRLEQETGWQAGIGWRHGLRHLAEWLIAHRFGGRQIRREKRKASA	failed
MNKALKALGVLTTFVMLIVLIGGALVTKTGSGQGCGRQWPLCHGRFFPELNPASIIEWSHRFASGISIILVLSLAFWSWRKITPIFRETTFLAIMSIIFLFLQALLGALAVVFGSNALIMALHFGISLISFASVLILTLLIFEADKSVRTLVKPLQIGKKMQFHMIGILIYSYIVVYTGAYVRHTESSLACPNVPLCSPLNNGLPTQFHEWVQMGHRAAALLLFVWIIVAAVHAITSYKDQKQIFWGWISCLIFITLQALSGIMIVYSELALGFALAHSFFIACLFGVLCYFLLLIARFRYESRQS	failed
MNKALWYVVLPALLVTVLAQRFGHLTVNFPLKSVFGGAAPAEAALHRRIALPSGFSLTVYAADLPGARMLRFTRTGDLLVSQPNAGAIVLLEKDADGDGRPDGRRQLLTGLSRPHGLDLRDGWLYVAETYGVVRVRYDAAQRQISGAPEMVVSGIPGGGNHWSRTLKFGPDGGMYVSVGSSCNVCIEDDPLRATLLRFEPDGTKREIYATGLRNTVGFDWRPGSRELYGTDNGRDLLGDDFPPCELNRIEKGGFYGWPYANGNRVPDPDYGRGHEADIRRSLPPVHEFRAHVAPLGMVFLKGGGLPQDYRGAALVALHGSWNRSKKQGYEVVSLHFGADGRIAERPFMTGFNVDEDVIGRPVDVAEGPDGAIYVSDDYAGAIYRVLYRPPVTASHD	failed
MNKFENFYKVPISYKNRKNEIYKYDNLEYNKMKYGMPEYYRCPYYMHENRNLYNTESCYTPNINVGRNSFYGKTLDPNDKICEENDSVYNILEEDHKEESFKKIECMNKEDDRKKIYNKVEKNDDENIDNKKHNYCEKYEEVYPKDRSSIKIIYNDVDQQIDHNLYDDENEIVCDNEIKKRKKRDRKVFMGKYFFSDIINTIIYPCTNKSLQKYQYGSVENMDYSLYNDIQKGQKIQKVDKIKNKKAPQIIVKF	failed
